Results from the supplement of paper PMC9732359.
± gives the uncertainty stated by the source.

Assay: protein stability index of a GFP-peptide fusion (yeast GPS) (PSI 1-4); higher = more stable; sorted into four equal gates, so the index is relative within each strain
Outline: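 Plasmids in a pooled yeast library fused tiled 17-residue yeast protein peptides downstream of GFP and also expressed Cherry. Mid-log cultures grown without leucine were sorted into four equal gates by GFP/Cherry fluorescence ratio. Each gate's plasmids were PCR-amplified and Illumina-sequenced, and reads were matched to strains by barcodes. The protein stability index is derived by multiplying each gate's read frequency by its gate number and summing the results.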

With KPELRKKVMPAIVVRQA [RPL23A] the protein stability index (doa10∆) was 2.83 ± 0.14, the protein stability index (pdr5∆) was 2.87 ± 0.086 and the protein stability index (san1∆) was 2.61 ± 0.16. For the same sequence, the protein stability index (ubr1∆) was 2.97 ± 0.063.
MDKPLNFRILKSFTNDK [SRB5] gave a protein stability index (doa10∆) of 3.15 ± 0.06, a protein stability index (pdr5∆) of 3.11 ± 0.059 and a protein stability index (san1∆) of 3.14 ± 0.042. For the same sequence, the protein stability index (ubr1∆) was 3.16 ± 0.036.
For TAIAHSIREQVHMYHKS [SNF5], the protein stability index (doa10∆) was 1.89 ± 0.044, the protein stability index (pdr5∆) was 1.92 ± 0.047 and the protein stability index (san1∆) was 2.23 ± 0.069. It also gave a protein stability index (ubr1∆) of 2.12 ± 0.044.
PHLIIQNHNSKSTDNSA [IRR1] showed a protein stability index (doa10∆) of 2.71 ± 0.047, a protein stability index (pdr5∆) of 2.88 ± 0.057 and a protein stability index (san1∆) of 2.81 ± 0.05. For the same sequence, the protein stability index (ubr1∆) was 2.78 ± 0.034.
For ATSTNPAKSASARGSYL [RPL17A], the protein stability index (doa10∆) was 2.25 ± 0.033, the protein stability index (pdr5∆) was 2.59 ± 0.038 and the protein stability index (san1∆) was 2.53 ± 0.038. It also gave a protein stability index (ubr1∆) of 2.66 ± 0.029.
In the case of LERTAIELKTDWVRFLA [RPN1], the protein stability index (doa10∆) is reported as 1.58 ± 0.13, the protein stability index (pdr5∆) is reported as 1.49 ± 0.098 and the protein stability index (san1∆) is reported as 1.55 ± 0.11. For the same sequence, the protein stability index (ubr1∆) was 1.17 ± 0.067.
NLLKDEGVTPGRIRTTR [SSN3] gave a protein stability index (doa10∆) of 3.1 ± 0.26, a protein stability index (pdr5∆) of 2.87 ± 0.23 and a protein stability index (san1∆) of 3.26 ± 0.12.
Sequence VIVPQIVLDEVRNKSYP [DIS3] has a protein stability index (doa10∆) of 2.68 ± 0.066, a protein stability index (pdr5∆) of 2.33 ± 0.089 and a protein stability index (san1∆) of 2.79 ± 0.11. For the same sequence, the protein stability index (ubr1∆) was 1.46 ± 0.04.
EEITCALDYLIPPPMPK [MED7] showed a protein stability index (doa10∆) of 1.86 ± 0.083, a protein stability index (pdr5∆) of 2.73 ± 0.21 and a protein stability index (san1∆) of 2.06 ± 0.16. It also gave a protein stability index (ubr1∆) of 2.28 ± 0.071.
In the case of SFTSQGTISIQLKNGLL [MTR3], the protein stability index (doa10∆) is reported as 2.66 ± 0.05, the protein stability index (pdr5∆) is reported as 2.67 ± 0.047 and the protein stability index (san1∆) is reported as 2.69 ± 0.055. For the same sequence, the protein stability index (ubr1∆) was 2.61 ± 0.032.
For IMQEAGLRAVRKNRYVI [RPT3], the protein stability index (doa10∆) was 2.89 ± 0.076, the protein stability index (pdr5∆) was 2.97 ± 0.099 and the protein stability index (san1∆) was 2.91 ± 0.083. For the same sequence, the protein stability index (ubr1∆) was 3.29 ± 0.13.
For NIDSSAQFTFGKAATAK [YOR098C/NUP1], the protein stability index (doa10∆) was 3.12 ± 0.099, the protein stability index (pdr5∆) was 3.07 ± 0.14 and the protein stability index (san1∆) was 3.22 ± 0.13. It also gave a protein stability index (ubr1∆) of 3.1 ± 0.072.
EIKKLLATNSLVEEFML [DIS3] showed a protein stability index (doa10∆) of 2.32 ± 0.055, a protein stability index (pdr5∆) of 1.9 ± 0.052 and a protein stability index (san1∆) of 2.54 ± 0.057. The protein stability index (ubr1∆) was 2.3 ± 0.048.
With KQENSTLLKKANRDDVK [RPC82] the protein stability index (doa10∆) was 2.72 ± 0.085, the protein stability index (pdr5∆) was 2.51 ± 0.13 and the protein stability index (san1∆) was 3.16 ± 0.22. The protein stability index (ubr1∆) was 3.12 ± 0.09.
ALIFIFFAYFIGWCKED [YJL039C/NUP192] showed a protein stability index (doa10∆) of 1.84 ± 0.088, a protein stability index (pdr5∆) of 1.54 ± 0.062 and a protein stability index (san1∆) of 2.03 ± 0.093. For the same sequence, the protein stability index (ubr1∆) was 1.88 ± 0.062.
With EIALKGLESLLNIGLGA [YCS4] the protein stability index (doa10∆) was 2.65 ± 0.11, the protein stability index (pdr5∆) was 2.47 ± 0.092 and the protein stability index (san1∆) was 3.03 ± 0.13. For the same sequence, the protein stability index (ubr1∆) was 2.77 ± 0.21.
For TNVQRIAAYIRRHRNPD [SMC1], the protein stability index (doa10∆) was 3.1 ± 0.24, the protein stability index (pdr5∆) was 3.32 ± 0.22 and the protein stability index (san1∆) was 3.29 ± 0.18. For the same sequence, the protein stability index (ubr1∆) was 3.04 ± 0.16.
For LFSKNRNEVLESMDFLV [YCS4], the protein stability index (doa10∆) was 2.08 ± 0.05, the protein stability index (pdr5∆) was 2.19 ± 0.066 and the protein stability index (san1∆) was 2.43 ± 0.076. For the same sequence, the protein stability index (ubr1∆) was 2.62 ± 0.052.
For GFSFGSQLGGNKTVNEA [YJL041W/NSP1], the protein stability index (doa10∆) was 3.18 ± 0.072, the protein stability index (pdr5∆) was 3.23 ± 0.074 and the protein stability index (san1∆) was 3.32 ± 0.048. It also gave a protein stability index (ubr1∆) of 3.22 ± 0.048.
Work on FDENIARDIISHNFQNA [PCI8] yielded a protein stability index (doa10∆) of 2.74 ± 0.053, a protein stability index (pdr5∆) of 2.77 ± 0.046 and a protein stability index (san1∆) of 2.67 ± 0.043. The protein stability index (ubr1∆) was 2.77 ± 0.039.
With IMELPGVYSDDELLSQL [SRP68] the protein stability index (doa10∆) was 2.99 ± 0.065, the protein stability index (pdr5∆) was 3.13 ± 0.056 and the protein stability index (san1∆) was 3.22 ± 0.045. The protein stability index (ubr1∆) was 3.05 ± 0.07.
For DSDKGSKLNELKKELKL [SMC2], the protein stability index (doa10∆) was 3.56 ± 0.18, the protein stability index (pdr5∆) was 3.02 ± 0.23 and the protein stability index (ubr1∆) was 3.33 ± 0.17.
Work on KIRRHPNIMLIFGSGFG [FAS1] yielded a protein stability index (doa10∆) of 1.9 ± 0.057, a protein stability index (pdr5∆) of 2.07 ± 0.061 and a protein stability index (san1∆) of 1.68 ± 0.13. For the same sequence, the protein stability index (ubr1∆) was 1.39 ± 0.054.
PTEMEPDLDTECFISMQ [SWI1] showed a protein stability index (doa10∆) of 3.27 ± 0.055, a protein stability index (pdr5∆) of 3.39 ± 0.052 and a protein stability index (san1∆) of 3.23 ± 0.047. The protein stability index (ubr1∆) was 3.26 ± 0.058.
SLLAMHKHNIMKNENAN [CDC53] gave a protein stability index (doa10∆) of 2.2 ± 0.064, a protein stability index (pdr5∆) of 2.58 ± 0.066 and a protein stability index (san1∆) of 2.82 ± 0.072. For the same sequence, the protein stability index (ubr1∆) was 3.05 ± 0.046.
With KYHYKEEWLNTKDPDEQ [CSN9] the protein stability index (doa10∆) was 2.86 ± 0.086, the protein stability index (pdr5∆) was 3.05 ± 0.099 and the protein stability index (san1∆) was 3.05 ± 0.057. For the same sequence, the protein stability index (ubr1∆) was 3.05 ± 0.093.
In the case of TVLVIDNSEYSRNGDFP [RPN10], the protein stability index (doa10∆) is reported as 2.44 ± 0.058, the protein stability index (pdr5∆) is reported as 2.73 ± 0.066 and the protein stability index (san1∆) is reported as 1.48 ± 0.098. It also gave a protein stability index (ubr1∆) of 2.44 ± 0.041.
Sequence LDSQETPSTEESRAQNV [SWI3] has a protein stability index (doa10∆) of 2.41 ± 0.091, a protein stability index (pdr5∆) of 2.38 ± 0.12 and a protein stability index (san1∆) of 3.16 ± 0.089. It also gave a protein stability index (ubr1∆) of 2.37 ± 0.051.
SLSVVAGKWSSKYLIKQ [ECM29] gave a protein stability index (pdr5∆) of 2.19 ± 0.18, a protein stability index (san1∆) of 2.15 ± 0.17 and a protein stability index (ubr1∆) of 2.39 ± 0.095.
HDISRYVRAKFLDYTTD [PRP8] showed a protein stability index (doa10∆) of 2.23 ± 0.066, a protein stability index (pdr5∆) of 1.99 ± 0.088 and a protein stability index (san1∆) of 1.83 ± 0.12. It also gave a protein stability index (ubr1∆) of 2.54 ± 0.089.
In the case of EEQEKINSAPDFTQEDE [ISW2], the protein stability index (doa10∆) is reported as 3.14 ± 0.11, the protein stability index (pdr5∆) is reported as 3.56 ± 0.088 and the protein stability index (san1∆) is reported as 3.39 ± 0.081. The protein stability index (ubr1∆) was 3.55 ± 0.067.
For RRIPKRMRNRALREMRK [POP1], the protein stability index (doa10∆) was 3.26 ± 0.11, the protein stability index (pdr5∆) was 2.45 ± 0.058 and the protein stability index (san1∆) was 3.34 ± 0.078. It also gave a protein stability index (ubr1∆) of 2.88 ± 0.13.
DVEDDDKETQLKKRAVS [POP7] showed a protein stability index (doa10∆) of 2.85 ± 0.18, a protein stability index (pdr5∆) of 2.94 ± 0.096 and a protein stability index (san1∆) of 2.41 ± 0.16. It also gave a protein stability index (ubr1∆) of 2.5 ± 0.21.
For QDSILIIYPRSQTTLVQ [ARP9], the protein stability index (doa10∆) was 2.6 ± 0.16, the protein stability index (pdr5∆) was 1.81 ± 0.064 and the protein stability index (san1∆) was 2.23 ± 0.079. The protein stability index (ubr1∆) was 2.46 ± 0.067.
In the case of VTTNINWRSFNAKIIDA [SRP68], the protein stability index (doa10∆) is reported as 3.14 ± 0.081, the protein stability index (pdr5∆) is reported as 3 ± 0.083 and the protein stability index (san1∆) is reported as 3.06 ± 0.059. It also gave a protein stability index (ubr1∆) of 3.18 ± 0.05.
With NTHWGLVCPAETPEGQA [RPB2] the protein stability index (doa10∆) was 1.53 ± 0.14, the protein stability index (pdr5∆) was 1.49 ± 0.1 and the protein stability index (san1∆) was 1.78 ± 0.15. It also gave a protein stability index (ubr1∆) of 1.14 ± 0.097.
Sequence FKIWHGEINKICMESLF [PCI8] has a protein stability index (doa10∆) of 1.83 ± 0.1, a protein stability index (pdr5∆) of 1.46 ± 0.056 and a protein stability index (san1∆) of 1.42 ± 0.1. The protein stability index (ubr1∆) was 1.87 ± 0.058.
FRKVKLRVDEVQGKNLL [RPS1B] showed a protein stability index (doa10∆) of 3.25 ± 0.1, a protein stability index (pdr5∆) of 3.35 ± 0.15 and a protein stability index (ubr1∆) of 3.28 ± 0.074.
Work on NLLHSYMEKGTQLDDLQ [YML103C/NUP188] yielded a protein stability index (doa10∆) of 2.63 ± 0.056, a protein stability index (pdr5∆) of 2.49 ± 0.053 and a protein stability index (san1∆) of 2.35 ± 0.052. The protein stability index (ubr1∆) was 2.32 ± 0.034.
